Usually Km stands for the substrate concentration at which the rate is half of its maximum. What is called kcat is the maximal rate divided by the concentration of active sites.

Km and kcat data for one substance are collected here from PMC12381709, “Fluorinating the Sugar and the Nucleotide: Exploring Fluorination Within GDP-Mannose Probes Using Chemoenzymatic Synthesis” (JACS Au, 2025).

Holding throughout (assay): purified protein
What all share (conditions): co-substrate NAD+

Series [1] deals with Nc1nc2c(ncn2[C@@H]2O[C@H](COP(=O)(O)OP(=O)(O)O[C@H]3O[C@H](CO)[C@@H](O)[C@H](O)[C@@H]3F)[C@@H](O)[C@H]2O)c(=O)[nH]1.
Series [2] has as its system Nc1nc2c(ncn2[C@@H]2O[C@H](COP(=O)(O)OP(=O)(O)O[C@H]3O[C@H](CO)[C@@H](O)[C@H](O)[C@@H]3F)[C@@H](O)[C@H]2F)c(=O)[nH]1.
Series [3] has as its system Nc1nc2c(ncn2[C@@H]2O[C@H](COP(=O)(O)OP(=O)(O)O[C@H]3O[C@H](CO)[C@@H](O)[C@H](O)[C@@H]3O)[C@@H](O)[C@H]2F)c(=O)[nH]1.
The test system of series [4] is Nc1nc2c(ncn2[C@@H]2O[C@H](COP(=O)(O)OP(=O)(O)O[C@H]3O[C@H](CO)[C@@H](O)[C@H](O)[C@@H]3O)[C@@H](O)[C@H]2O)c(=O)[nH]1.

Take “GDP-mannose dehydrogenase (GMD; PaGMD) (Pseudomonas aeruginosa PAO1)”: the Michaelis constant (Km) in series [1] is reported as 134.29 ± 12.78 µM; in series [2], 87.72 ± 5.82 µM; in series [3], 20.95 ± 0.83 µM; in series [4], 18.18 ± 3.82 µM. The kcat turned out to be 0.0655 ± 0.00267 s⁻¹ in series [1], 0.0407 ± 0.0012 s⁻¹ in series [2], 0.0507 ± 0.00067 s⁻¹ in series [3] and 0.0427 ± 0.00333 s⁻¹ in series [4].
